According to FireProtDB (doi:10.1021/bi00369a002):
Where “and” joins values, the source holds several entries; their conditions need not be identical. Identical values can stand only once.

B1: Tryptophan synthase alpha chain, P0A877 (parent)
chain: MERYESLFAQLKERKEGAFVPFVTLGDPGIEQSLKIIDTLIEAGADALELGIPFSDPLADGPTIQNATLRAFAAGVTPAQCFEMLALIRQKHPTIPIGLLMYANLVFNKGIDEFYAQCEKVGVDSVLVADVPVEESAPFRQAALRHNVAPIFICPPNADDDLLRQIASYGRGYTYLLSRAGVTGAENRAALPLNHLVAKLKEYNAAPPLQGFGISAPDQVKAAIDAGAAGAISGSAIVKIIEQHINEPEKMLAALKVFVQPMKAATRS

Variants of: B1
Conditions: Escherichia coli (strain K12); pH 7.8; 25 °C; Urea; Absorbance; Potassium phosphate 10 mM; transition: 3; structure 1WQ5; whole UniProt chain shown

Variant	ddG of mutation (higher = less stable)	denaturant m value	denaturant midpoint (higher = more stable)
MERYESLFAQLKERKEGAFVPFVTLGDPGIEQSLKIIDTLIEAGADALELGIPFSDPLADGPTIQNATLRAFAAGVTPAQCFEMLALIRQKHPTIPIGLLMYANLVFNKGIDEFYAQCEKVGVDSVLVADVPVEESAPFRQAALRHNVAPIFICPPNADDDLLRQIASYGRGYTCLLSRAGVTGAENRAALPLNHLVAKLKEYNAAPPLQEFGISAPDQVKAAIDAGAAGAISGSAIVKIIEQHINEPEKMLAALKVFVQPMKAATRS [Y175C G211E]	1.3 kcal/mol and 1 kcal/mol	3 kcal/mol/M and 1.4 kcal/mol/M	2.2 M and 3.49 M
MERYESLFAQLKERKEGAFVPFVTLGDPGIEQSLKIIDTLIEAGADALELGIPFSDPLADGPTIQNATLRAFAAGVTPAQCFEMLALIRQKHPTIPIGLLMYANLVFNKGIDEFYAQCEKVGVDSVLVADVPVEESAPFRQAALRHNVAPIFICPPNADDDLLRQIASYGRGYTYLLSRAGVTGAENRAALPLNHLVAKLKEYNAAPPLQEFGISAPDQVKAAIDAGAAGAISGSAIVKIIEQHINEPEKMLAALKVFVQPMKAATRS [G211E]	–	3 kcal/mol/M and 1.5 kcal/mol/M	2.73 M and 3.72 M
MERYESLFAQLKERKEGAFVPFVTLGDPGIEQSLKIIDTLIEAGADALELGIPFSDPLADGPTIQNATLRAFAAGVTPAQCFEMLALIRQKHPTIPIGLLMYANLVFNKGIDEFYAQCEKVGVDSVLVADVPVEESAPFRQAALRHNVAPIFICPPNADDDLLRQIASYGRGYTCLLSRAGVTGAENRAALPLNHLVAKLKEYNAAPPLQGFGISAPDQVKAAIDAGAAGAISGSAIVKIIEQHINEPEKMLAALKVFVQPMKAATRS [Y175C]	–	3 kcal/mol/M and 1.1 kcal/mol/M	2.58 M and 3.71 M
